Source: patent US20160108091A1 (Novartis, published 2016)
Bridges are numbered along the chain shown (N, C = ends). [ ]: non-standard residue; d: D form. The star is where a group is joined. NHPhenethyl = c1ccc(CCN*)cc1; hCys = N[C@@H](CCS)C(=O)O; Nle = CCCC[C@H](N)C(=O)O

biological target: T1, human APJ receptor (hAPJ) (human, UniProt P35414 1-380); test: cell-based or functional assay
T1 sequence (looked up): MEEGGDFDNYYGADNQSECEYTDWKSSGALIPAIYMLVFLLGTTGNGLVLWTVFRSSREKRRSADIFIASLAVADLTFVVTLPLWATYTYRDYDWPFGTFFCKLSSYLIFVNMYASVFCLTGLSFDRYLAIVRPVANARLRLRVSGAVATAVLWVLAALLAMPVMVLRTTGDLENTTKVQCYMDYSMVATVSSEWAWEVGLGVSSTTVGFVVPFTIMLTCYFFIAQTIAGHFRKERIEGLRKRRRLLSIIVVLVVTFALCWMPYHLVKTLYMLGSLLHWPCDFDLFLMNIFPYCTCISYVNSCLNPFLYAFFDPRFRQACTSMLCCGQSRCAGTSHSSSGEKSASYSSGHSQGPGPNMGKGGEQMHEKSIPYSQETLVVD

hAPJ Ca^2+ Flux EC50 [nM]	Binder
12.2	Ac-[dC]RPRLS[hCys]KGP[Nle]PF-OH (disulfide 1-7; SMILES CCCC[C@H](NC(=O)[C@@H]1CCCN1C(=O)CNC(=O)[C@H](CCCCN)NC(=O)[C@@H]1CCSSC[C@@H](NC(C)=O)C(=O)N[C@@H](CCCNC(=N)N)C(=O)N2CCC[C@H]2C(=O)N[C@@H](CCCNC(=N)N)C(=O)N[C@@H](CC(C)C)C(=O)N[C@@H](CO)C(=O)N1)C(=O)N1CCC[C@H]1C(=O)N[C@@H](Cc1ccccc1)C(=O)O) [Ac-c*-R-P-R-L-S-hC*-K-G-P-Nle-P-F-OH]
32.2	Ac-CRPRLSCKGP[Nle]-NHPhenethyl (disulfide 1-7; SMILES CCCC[C@H](NC(=O)[C@@H]1CCCN1C(=O)CNC(=O)[C@H](CCCCN)NC(=O)[C@@H]1CSSC[C@H](NC(C)=O)C(=O)N[C@@H](CCCNC(=N)N)C(=O)N2CCC[C@H]2C(=O)N[C@@H](CCCNC(=N)N)C(=O)N[C@@H](CC(C)C)C(=O)N[C@@H](CO)C(=O)N1)C(=O)NCCc1ccccc1) [Ac-C*-R-P-R-L-S-C*-K-G-P-Nle-NH(Phenethyl)]
194	Ac-CRPRLS[dC]KGP[Nle]PF-OH (disulfide 1-7; SMILES CCCC[C@H](NC(=O)[C@@H]1CCCN1C(=O)CNC(=O)[C@H](CCCCN)NC(=O)[C@H]1CSSC[C@H](NC(C)=O)C(=O)N[C@@H](CCCNC(=N)N)C(=O)N2CCC[C@H]2C(=O)N[C@@H](CCCNC(=N)N)C(=O)N[C@@H](CC(C)C)C(=O)N[C@@H](CO)C(=O)N1)C(=O)N1CCC[C@H]1C(=O)N[C@@H](Cc1ccccc1)C(=O)O) [Ac-C*-R-P-R-L-S-c*-K-G-P-Nle-P-F-OH]
48.7	Ac-[dC]RPRLS[dC]KGP[Nle]PF-OH (disulfide 1-7; SMILES CCCC[C@H](NC(=O)[C@@H]1CCCN1C(=O)CNC(=O)[C@H](CCCCN)NC(=O)[C@H]1CSSC[C@@H](NC(C)=O)C(=O)N[C@@H](CCCNC(=N)N)C(=O)N2CCC[C@H]2C(=O)N[C@@H](CCCNC(=N)N)C(=O)N[C@@H](CC(C)C)C(=O)N[C@@H](CO)C(=O)N1)C(=O)N1CCC[C@H]1C(=O)N[C@@H](Cc1ccccc1)C(=O)O) [Ac-c*-R-P-R-L-S-c*-K-G-P-Nle-P-F-OH]
46.9	Ac-CRPRLSCKGP[Nle]P[dF]-OH (disulfide 1-7; SMILES CCCC[C@H](NC(=O)[C@@H]1CCCN1C(=O)CNC(=O)[C@H](CCCCN)NC(=O)[C@@H]1CSSC[C@H](NC(C)=O)C(=O)N[C@@H](CCCNC(=N)N)C(=O)N2CCC[C@H]2C(=O)N[C@@H](CCCNC(=N)N)C(=O)N[C@@H](CC(C)C)C(=O)N[C@@H](CO)C(=O)N1)C(=O)N1CCC[C@H]1C(=O)N[C@H](Cc1ccccc1)C(=O)O) [Ac-C*-R-P-R-L-S-C*-K-G-P-Nle-P-f-OH]
9.4	Ac-CRPRLSCKGP[Nle]PF-OH (disulfide 1-7; SMILES CCCC[C@H](NC(=O)[C@@H]1CCCN1C(=O)CNC(=O)[C@H](CCCCN)NC(=O)[C@@H]1CSSC[C@H](NC(C)=O)C(=O)N[C@@H](CCCNC(=N)N)C(=O)N2CCC[C@H]2C(=O)N[C@@H](CCCNC(=N)N)C(=O)N[C@@H](CC(C)C)C(=O)N[C@@H](CO)C(=O)N1)C(=O)N1CCC[C@H]1C(=O)N[C@@H](Cc1ccccc1)C(=O)O) [Ac-C*-R-P-R-L-S-C*-K-G-P-Nle-P-F-OH]
21.4	Ac-[dC]RPRLSCKGP[Nle]PF-OH (disulfide 1-7; SMILES CCCC[C@H](NC(=O)[C@@H]1CCCN1C(=O)CNC(=O)[C@H](CCCCN)NC(=O)[C@@H]1CSSC[C@@H](NC(C)=O)C(=O)N[C@@H](CCCNC(=N)N)C(=O)N2CCC[C@H]2C(=O)N[C@@H](CCCNC(=N)N)C(=O)N[C@@H](CC(C)C)C(=O)N[C@@H](CO)C(=O)N1)C(=O)N1CCC[C@H]1C(=O)N[C@@H](Cc1ccccc1)C(=O)O) [Ac-c*-R-P-R-L-S-C*-K-G-P-Nle-P-F-OH]
